In PMC7311561 one finds IC50 of inhibition of cathepsin B activity (0.026 μmol/L cathepsin B, fluorogenic substrate Z-Arg-Arg-AMC, pH 5.5, increasing TK-cystatin), IC50 of inhibition of cathepsin L activity (0.026 μmol/L cathepsin L, fluorogenic substrate Z-Phe-Arg-AMC, pH 5.5, increasing TK-cystatin) and IC50 of inhibition of papain activity (0.15 μmol/L papain, fluorogenic substrate Z-Phe-Arg-AMC, pH 5.5, increasing TK-cystatin) data, which are given here for one substance.

The target in assay [1] is cathepsin B from human (human).
For assay [2], the target named is cathepsin L from human (human).
Assay [3] concerns the target papain from Carica papaya (Carica papaya) (UniProt P00784).

papain from Carica papaya (Carica papaya), sequence (P00784 134-345): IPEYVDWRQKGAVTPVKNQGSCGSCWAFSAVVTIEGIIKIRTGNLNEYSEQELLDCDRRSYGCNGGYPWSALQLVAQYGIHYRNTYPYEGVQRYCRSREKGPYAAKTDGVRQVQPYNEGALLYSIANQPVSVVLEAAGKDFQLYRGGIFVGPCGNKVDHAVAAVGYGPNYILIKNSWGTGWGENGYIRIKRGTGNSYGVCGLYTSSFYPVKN

In assay [1], “TK-cystatin (secretory cystatin from Thelohanellus kitauei) (natural protein)” showed an IC50 of inhibition of cathepsin B activity (0.026 μmol/L cathepsin B, fluorogenic substrate Z-Arg-Arg-AMC, pH 5.5, increasing TK-cystatin) of 2.1 μmol/L. This substance returned an IC50 of inhibition of cathepsin L activity (0.026 μmol/L cathepsin L, fluorogenic substrate Z-Phe-Arg-AMC, pH 5.5, increasing TK-cystatin) in assay [2] of 0.175 μmol/L. Moreover, the IC50 of inhibition of papain activity (0.15 μmol/L papain, fluorogenic substrate Z-Phe-Arg-AMC, pH 5.5, increasing TK-cystatin) in assay [3] worked out at 0.8 μmol/L.
